Source: the domain aggregation screens of Martell et al. (2025)

Assay: soluble fraction after stress (log2 fold change); higher = more stays soluble; pooled small domains, quantitative proteomics
Settings: stress: pH 4
Procedure, shortened: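 After pH 4 stress, pooled custom libraries of small protein domains were quantified with high-throughput quantitative proteomics. Aggregation propensity is taken from the fold change in each domain's soluble amount following the acid stress. The scale is log2, where higher values mean more stayed soluble.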

Row | Sequence | soluble fraction (log2)
1 | HMKKTPLSELTNRAVELFIETVFMERNYSVSSQRQFISALKIFTVFYPQTKIHNLSLERLQSSFDKLLN | -0.564
2 | HMKLPNSFGSIQKLSGNRRKPYRVVKTIGWDENGKQIRKTLGYYETRAKALQELALFNEKPYD | 0.22
3 | HMDAQEAAWARKMMETLPEKQKLSVALRIEEGLSFKEIGEIIGSSEGAARVNYFHGIRRLRELL | -0.768
4 | HMGIPIEAYHESLHRHYIDLWELLDTGKETLIDAEGNEVDKIHLLNAIRFNVNGMLHELLKE | -1.48
5 | HMAGFGDSLEKMSDAVEALKLLMSTEDARNDQNIQKIARELKDVFNKYRTHLRKSYPDQYDRIKSTL | -0.62
6 | HMGAVPKNYFPAVEKGLQDSVQKGLLAGYPVVGVKAILYDGSYHPVDSSEMAFKTATIQAFKKGFMEA | -0.0216
7 | HMQITDTEAIATTLDEIIAANPKEWERLKAGQEQLVKFFVGQVMRVTKGRANPQVVNDLLKERL | 0.186
8 | HMNMENIADKIGKIYESLPEDLKLMIKYRDIDDLTYDEIAVKADLPVGTVRSRLHRAREQLLKELEKN | -0.0554
9 | HMTQGRVTGDGVNVRSQPNTDSAILTRVSTGKVVELISLKDNWYNVVVNGTKGYIRADYVSPYDG | 0.00816
10 | HMTETELYDEVNRLIGLHLSERDRMILIMRDRDEFEIDAIAARTGLSEGNIRLILSRARRTVREAYRNNI | -1.6
11 | HMQELNDQQRLAILNEWNNRATNPPSLLELVRVAFPDAEGADGRSWHGKKVKEFLSTRQIKARAS | -0.282
12 | HMKNSIKLDNFVGMSYDEVISNKEYDFNFVSAFEKTSDYEAGTIIGQTPAAEERVMVGTTVTLTVAQP | 0.158
13 | HMDVSLVEQTQRDILEYISKNNSNAQLPKEQEFVGLLGVSRVVVREALSRLRALGIIETKRKKGTVVVVPE | -0.31
14 | HMLAYQRTYEKILEDLRNDVYPVNSLLPPEPKLEEIYHVSRTTVRRAIAQLADEGYVKVKQGYGTVVLKN | 0.22
15 | HMSQLVTGVLRNLNDISEKIAAGKAVPEMLGRLENMQQMIANLKGNEGLIKSISILTRSAQDALR | -0.0398
16 | HMGSLVKLQSAAELHQAGRSAEAVPILLEVLATNPRLVDGWEILANALEKLGRLDEALAALKKTVALSPPG | -1.23
17 | HMVQVRQPAGAGDLFAKGRLHLSTGTIHTVKPLEVDLPKGRLTVVTGVSGSGKTTLILESLLPALAAAAA | 0.307
18 | HMPTLSKVGSQGEEVRQIQTKLKNWGYLNDRVDGIYGPKTRDAVIWFQKKNGLVADGIAGPATLKAMGIFT | ≥ 0.43
19 | HMYYNQGILKSGASVYGEPGITSSHRLEIPSGSFVDIVQEKDEWVYYEKNHVNHGWVLRENIYIPSL | 0.23
20 | HMVPPELEFLQSLMKIEDISELTAAIENNRDAVTDDFKEMLETVIENISGAPDTDPKLLERLKTIRTVLA | -0.631
21 | HMNRITEFVVPEGTKKIRADKLLAESFPDHSRSDFHRAFDASLVRLEGQPISKNRKISQGDVLVFEMPEI | -0.468
22 | HMSDPHEELMSRIARDLSIPLTRVVAEMNTIISKEFGGHIRPEGAVVILAKRSGVEFSDLLPALRENILK | -0.852
23 | HMTKIEYTEQEFNDFIQAYKNNRKMFPEDYIVKTQVVFINKGFSKSQADMIIAQIETRLRLQGE | -0.378
24 | HMSTRKAFVNGDGVRLRSGPGTNHSIRASLTKGQTVFVTGTKDGWASVSVQGGASGWVSADLLKYE | 0.237
25 | HMQNELAEARSQLAERKNIDQAKLILMKKRNISEPEAYKLLRSHAMQTNRRVAEVAESIITAESLLG | 0.0831

Row | Sequence | soluble fraction (log2)
26 | HMPTAGYMTVTPDRVKEGQQFLATLRPPYVLKADGLAAGKGVLILPELEEAQRELEEMLGGFLGELSVNR | -0.303
27 | HMLKFPIGTHVGKKKPSANLSLPNKHGVVIGHGERRNAKGAIMRFYIVETTHSSRPEEWAPGITYPL | -0.275
28 | HMQALDNNDALEEIIKKVITENPSQVTEFRNGKDSLMNFLVGKVMAASGGKANPKTLPETIEKIIK | 0.277
29 | HMSTNDIFISGDKLVLKNTTGQMDVFDMAGRKVLSSTNNVSEMNVSSLPKGVYVVSASIGGSKMKAKVYK | 0.0276
30 | HMSSLSGVRRTLLDSLGMPPDASDEELADRREELRGSLDTAPQARRKWIEQQLARIDAITALDASG | -0.0243
31 | HMINIGANIRAIRKQKNIKQVDLVRLLQLEGVEITRETLVKIESGVQHIKASQLRGIRDALGTTYDELL | -0.863
32 | HMNQWQLLSEDGAILGTRVLYHPHETEQPFTRSLSGVKIPAHVQSVTIRAGDLVHGFGGREIQMQLPPIV | 0.0124
33 | HMSSSLDQLTVREREILAQVSRGLSNKAIARELGISHDTVKLHVRHILSKLGFSSRVEAAVFAIEHRIG | -0.481
34 | HMNHNPSIARKISREIKRGAPPESLLNLARTVNDSYYRSLSFVSIAYSIKGKKSKELFEEAISNLT | -0.0826
35 | HMPLDKDTTLDEIYRRFNMEHPADYKGHSLSMGDIVVFRQDGKQTAYYVDEGADYRQVPEFFVK | -0.173
36 | HMDALPLIQLEKEIKDFISQGQKINAIKHYRNVMDRDFGTTISLKLAKYTVDALAQNIKVDLTKGYDQ | -0.852
37 | HMAPAGGITRQDLFAWGLMGGEGSREKRQQLKKSLGLPSHLGTSGFLDALNLIATRDQVEALLHK | ≥ 0.43
38 | HMVSVEELLSSLDPNEATVLKLLAERSSGVDELMERSGLDFSALSEAITNLELFGYIAREMDGVYSFS | -1.78
39 | HMENIIKISASYEGLRVDQFLSNYLKISRSKVQKYISEEKIFLNNVPTKTNRKVKLDDIISYNLNF | 0.0839
40 | HMSKHATLLEALAELTVKLKPHTQLPSERQLSEDFGVSRMTLRRAIDVMQSRGYIYTVPSKGLYVSEP | -0.156
41 | HMSMNSWFVEKERDNTRIDKFLNEQMADISRSYIQKLIKDDLVTVDLRPVKANYKVKEGDRVEVTLPEPV | -0.0679
42 | HMVPQEVLPITLIIDGKLIEENLLYAKMTEQVLIQQLDINNIKSIKQILFAGLDSFGNFFYQEKQN | -1.91
43 | HMKEGGGYGQLRLKEAAIQHAFDLQNALQFIAERGYQAHENTTLKEAANALNLKPIELLELLKSSQ | -0.574
44 | HMPLDPFVVDALRDEIINTIKQHEPRVDLQKVQVQPIYTQNRVNISVQYKIVGLPIVEDITFVLQRP | 0.135
45 | HMKVTRWEDTGMKPAEAQEWQHYDFKPQEAMNWRDAGFVPLVARTWSDKGFDASEAQAWRDSVRNS | 0.123
46 | HMIKRNPLDEIEGVGPGRKKALLHAFGSAKGVSRASVVDLVKVEGVSQALAERIHDFFHPATR | 0.198
47 | HMDTERLYAYAWQTHLKQFGLNISEEEIRQFVGVDDRIVHSFYAKTVPLDDFENTMFSLGEIIQQSL | -2.08
48 | HMGTGELLVHVIGAVHSPGVVRLPTGARVVDAIDAAGGAREDAQTEQLNLARLVDDGEQVRVPVVGESVD | 0.00081
49 | HMNAMKPVLTVSLGVHTDSLSRRLNEEGIIYRWQQAASEQLLLVDSESSSERIAELIHDWRLEQSSS | -0.051
50 | HMPGLPLWAFSTRGSAIHTGASFRDGDGLLFGPESRGLPDWLLEEVGQDRVLRLPMRPGSRSLNLSNAV | -1.7

Row | Sequence | soluble fraction (log2)
51 | HMSQESIMPNLVGSTEDEAKAIAVEYGFQLNVISRVNNSQYPAGVIIDQNVDEGVRIKAGYPVGVTIS | -0.0416
52 | HMTFDWAAYEISEKEIRVMSLVAEGFSNKEIAQELFLSEGTVRNYISNILEKLGLRDRTQLAVHYLKAV | -1.52
53 | HMGDEHYDTISAFIKSVRGSDPDAALYWLAKMILAGEDPRFILRRLIVLSGEDIGLADPQGI | -0.346
54 | HMLKPQQTQRIYAMAARLGVLESGNKNDMLHTIVYRLTQKESIRSLNENEYKTVVSELAERLKL | -0.917
55 | HMDQESFGYFHVKYADVKQVADLVQKLNIPAVTWADERTRRLVALGSPATLQRISQVLNMVDL | -0.476
56 | HMEDQFWQNRAEMALASARRAGRIVTYAEMADAADIPAPQRIHKLTLWLEATMRQDHASGQPLRAALV | -0.0778
57 | HMYAHTPEMEAMNELGLEPPVTLDEIKKTYKTLVKKYHPDHNKEDPEAEEKLKKVNMAYTILKVAYTEFEK | 0.0101
58 | HMGVKHKHKGAGELLAALRTMFPNSSVSTLRKMLTQGRVVLNGEVVHRAKHELTDGDTIEVLERQRAER | 0.228
59 | HMPIQLLSEKYMDEHWDELDKDEVSLYQNMSIRFLLKHEDDINWKLYSTNPFISIDTIDFFKDKISWVNI | -1.45
60 | HMVTIYQRIMLVLEDKQVSVNALSKLVDMSQTTLNTQLKGERTLSANVVAKVLVAYPDVSAEWLMRGVGTM | -0.426
61 | HMVSLPSPLAGKVVSLTVQAGQEVKEGDEIMVLEAMKMNTQVHAPSSGRILALRVQPGDQVEEGQTLVTMG | 0.0584
62 | HMNEFAYLIKISPEHNNNRYYRMVAEGDNFRIEMGRIGASPVQMKRPMYLWNETYQKKLQEGYTDRTSYTS | -0.2
63 | HMNGDWISARQEYYIRGLWDLASRAKDEASLQAMLQRIAGVTQIEWISKEKATKVILALRDIAKK | -0.154
64 | HMKGKITTNWVSLTSDLGWLRSELYSSGSVLEERISNEGLIELHLENFQNDLIKLLEVEGFDLIKE | -1.73
65 | HMKKTAAKVLGESEGKPVTVQSGRYGPYVQLGSIRATLPKDLEQDDVTLDRALELISAKAERAGK | 0.0406
66 | HMTASKSTVSTPEKVVYHIVFPKETKYSIAKKYGITIEELEKRNPEIIPSLSVGQKLVIKGTAPK | 0.173
67 | HMFTLDIGTIIRNRRLELNLTLEEIGNAVGVSKSTVQKWENGFISNMKRDKISALAKVLNINPVTLITGEY | -0.711
68 | HMRMTKPLPFDLAAFRNEFGFTKSIIMQEVGVSRHIYDNVERTNATPPEFYDDFVSFFQRHGQ | -0.203
69 | HMLKEKETRALANFTNKFFGLDISEDLKPIALSELSKFKKTHKISNLEEFINSFQYDFQNEKILSLLDIFL | -0.879
70 | HMALSVRNRMSDLLRMLGDGEFHRFENLFSLEEGRHGIVVTFLAMLELAKEQLVEISQGESLAPIYLKSLA | -0.403
71 | HMMQEIKLEVINNEELRIDNYINLAGIGLSRSYIQKLIKDGVILVNGKEVKSSYKVSLGDIISVQIPDPG | -0.209
72 | HMSAISSARKEKIIEYLTDHGSARSSEIAEYVDLRPSRVRDYLGELVREDIVVAEGANRNRTYRLK | 0.409
73 | HMIITLNIENLKRARENAGLTQTQAAQKIGVSDGTYKNYEQGKREPNGDKIVTIANAFGVTTDYLLGR | 0.22
74 | HMAVTFPYTAYATDAVRLRERPSSSADVLAVIRKGDAVLVTGTDGNYAIVDYEGKRGYVVSSFIAT | -0.159
75 | HMLSYDDTVVIGRNLLENAMKQKNIALEQLTDEVLARLAKELQVESVEAMYAGIGSGKRPSSFIINRLEAH | -0.454
